Data published in patent publication US6864238.

Biological target: Bovine brain α/β tubulin (bovine) (UniProt P81947)
Assay: cell-based or functional assay

Sequence of Bovine brain α/β tubulin (bovine) (P81947 whole entry, chain 1 of 2): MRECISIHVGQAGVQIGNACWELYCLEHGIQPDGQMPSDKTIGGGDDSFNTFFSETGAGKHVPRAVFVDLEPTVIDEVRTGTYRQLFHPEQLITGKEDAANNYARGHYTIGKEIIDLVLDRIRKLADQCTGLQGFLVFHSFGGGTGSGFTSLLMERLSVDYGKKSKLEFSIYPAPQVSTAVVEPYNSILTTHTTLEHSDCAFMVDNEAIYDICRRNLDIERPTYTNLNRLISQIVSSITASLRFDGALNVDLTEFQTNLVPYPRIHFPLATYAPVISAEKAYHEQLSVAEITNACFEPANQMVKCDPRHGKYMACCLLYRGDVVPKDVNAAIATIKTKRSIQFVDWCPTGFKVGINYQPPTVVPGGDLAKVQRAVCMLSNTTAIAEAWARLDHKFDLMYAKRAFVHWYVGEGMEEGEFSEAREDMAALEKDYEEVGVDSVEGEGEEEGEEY
Sequence of Bovine brain α/β tubulin (bovine) (Q6B856 whole entry, chain 2 of 2, further chain): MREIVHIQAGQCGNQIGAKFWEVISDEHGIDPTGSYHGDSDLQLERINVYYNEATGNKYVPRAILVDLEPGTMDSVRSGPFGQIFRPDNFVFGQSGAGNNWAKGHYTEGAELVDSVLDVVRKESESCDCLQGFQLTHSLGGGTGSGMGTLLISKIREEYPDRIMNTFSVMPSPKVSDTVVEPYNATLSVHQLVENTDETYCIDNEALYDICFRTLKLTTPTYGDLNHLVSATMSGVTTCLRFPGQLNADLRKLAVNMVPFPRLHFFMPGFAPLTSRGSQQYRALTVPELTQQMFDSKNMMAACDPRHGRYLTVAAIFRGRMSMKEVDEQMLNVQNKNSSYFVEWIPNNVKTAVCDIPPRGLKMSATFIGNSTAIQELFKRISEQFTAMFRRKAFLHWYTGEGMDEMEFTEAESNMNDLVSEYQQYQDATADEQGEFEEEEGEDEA

GST-PN2-2 (from UniProt Q9HC77 191-310)
distribution of tubulin in supernatant and pellet, in vitro microtubule sedimentation assay (15 µM tubulin): 40 µM
